From US20190359686A1 (INNOVATIVE TECHNOLOGIES IN BIOLOGICAL SYSTEMS SL, published 2019)
Where no end group is shown, it is not given here.

T1: F2R like trypsin receptor 1 (PAR2) (UniProt P55085 37-397)
T1 sequence (looked up): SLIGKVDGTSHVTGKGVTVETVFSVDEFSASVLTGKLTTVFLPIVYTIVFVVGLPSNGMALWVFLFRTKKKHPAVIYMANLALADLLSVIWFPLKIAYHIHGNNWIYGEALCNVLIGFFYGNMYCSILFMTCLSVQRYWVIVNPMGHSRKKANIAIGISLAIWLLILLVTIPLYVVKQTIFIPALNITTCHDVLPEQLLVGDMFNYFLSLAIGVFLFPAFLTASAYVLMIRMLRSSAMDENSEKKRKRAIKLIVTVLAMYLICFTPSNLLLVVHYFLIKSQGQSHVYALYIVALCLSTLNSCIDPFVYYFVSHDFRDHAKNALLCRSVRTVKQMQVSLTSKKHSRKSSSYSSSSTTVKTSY


Target: T1, F2R like trypsin receptor 1 (PAR2)
Experiment: cell-based or functional assay

EC50 SLIGKV calcium assay | EC50 SLIGKV ß-Arrestin assay | EC50 SLIGRL-NH2 calcium assay | EC50 SLIGRL-NH2 ß-Arrestin assay | Binder
1.67 µM | 4.83 µM |  |  | SLIGKV
 |  | 4.06 µM | 12.7 µM | SLIGRL-NH2 [SLIGRL-NH2]
